Legend:
[1] = biological target: T1, human inducible phospho-fructokinase bisphosphatase isoform 3, PFKFB3 (human), Q16875; experiment: MST; compound in MST buffer mixed 1:1 with 100 nM RED-NHS labeled recombinant PFKFB3, incubated 20 min at room temperature; Nanotemper
[2] = biological target: T1, human inducible phospho-fructokinase …

T1 sequence (Q16875 whole entry, canonical isoform): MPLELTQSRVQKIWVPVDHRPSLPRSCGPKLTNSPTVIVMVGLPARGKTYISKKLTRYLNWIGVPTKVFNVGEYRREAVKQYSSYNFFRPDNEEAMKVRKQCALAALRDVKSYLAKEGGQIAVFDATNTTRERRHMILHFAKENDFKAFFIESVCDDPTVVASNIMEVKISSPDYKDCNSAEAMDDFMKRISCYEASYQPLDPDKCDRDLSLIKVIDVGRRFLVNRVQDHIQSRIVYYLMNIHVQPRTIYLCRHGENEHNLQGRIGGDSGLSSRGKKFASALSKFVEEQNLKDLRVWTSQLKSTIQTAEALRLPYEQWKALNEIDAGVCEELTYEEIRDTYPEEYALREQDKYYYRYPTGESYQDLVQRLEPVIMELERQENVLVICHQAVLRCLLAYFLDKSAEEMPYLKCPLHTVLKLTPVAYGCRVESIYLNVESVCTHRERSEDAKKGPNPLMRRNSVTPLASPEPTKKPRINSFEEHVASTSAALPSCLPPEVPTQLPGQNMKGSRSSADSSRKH

Binder	Kd [1] [µM]	PFKFB3 bisphosphatase velocity (LC-MS/MS of F6P) with compound 4, substrate F2,6BP 20-50 µM; not significantly different from enzyme alone (nmol/min of F6P per nmol of enzyme) [2]
YSGFLT (modifications not checked) [compound 4]	18	0.14
SFLLR (modifications not checked) [compound 5]	44	–
